Measurements: the Human Domainome abundance scans (Beltran et al. 2025)
± gives the uncertainty stated by the source.

B1: F-BAR and double SH3 domains protein 1, residues 467 to 528; numbered along this chain, Q86WN1 (parent)
chain: RALPCPAHVVFRYQAGREDELTITEGEWLEVIEEGDADEWVKARNQHGEVGFVPERYLNFPD

Variants of: B1
Test: abundance fitness (aPCA) (normalised: wild type 0, dead -1); higher = more abundant; growth selection in yeast, the domain comes from the species named
Settings: Homo sapiens

Point of comparison: E49V, abundance fitness -0.139 ± 0.066. Against it:
- V10N — within error, -0.336 ± 0.24
- V10S — within error, -0.105 ± 0.073
- V10K — within error, -0.094 ± 0.085
- V10W — within error, -0.236 ± 0.08
- V10L — within error, -0.165 ± 0.05
- V10D — within error, -0.109 ± 0.13
- F60T — lower, -0.499 ± 0.091
- F60M — within error, -0.223 ± 0.079
- F60G — lower, -0.555 ± 0.063
- F60I — within error, -0.154 ± 0.069
- F60C — lower, -0.275 ± 0.065
- F60K — lower, -0.533 ± 0.1
- F60Q — lower, -0.778 ± 0.11
- A37T — higher, 0.014 ± 0.071
- A37R — higher, 0.141 ± 0.073
- A37F — within error, -0.023 ± 0.12
- A37Q — higher, 0.071 ± 0.068
- A37G — within error, -0.05 ± 0.079
- H47M — within error, -0.039 ± 0.052
- H47C — within error, -0.045 ± 0.13
- H47P — lower, -0.585 ± 0.11
- H47R — higher, 0.092 ± 0.048
- Y13V — lower, -0.785 ± 0.097
- Y13A — lower, -0.504 ± 0.079
- Y13T — lower, -0.629 ± 0.13
- Y13M — lower, -0.594 ± 0.14
- Y13D — lower, -0.648 ± 0.12
- Y13F — within error, -0.06 ± 0.066
- Y13Q — lower, -0.406 ± 0.12
- Y13E — lower, -0.959 ± 0.21
- Y13N — lower, -0.38 ± 0.089
- Y13I — lower, -0.742 ± 0.17
- G26Y — lower, -0.564 ± 0.13
- G26T — lower, -0.871 ± 0.2
- G26D — within error, -0.047 ± 0.087
- E27F — lower, -0.795 ± 0.15
- E27V — lower, -0.81 ± 0.15
- E27C — lower, -0.699 ± 0.14
- T22P — lower, -0.704 ± 0.1
- T22K — lower, -0.686 ± 0.13
- T22C — within error, -0.265 ± 0.14
- T22F — lower, -0.742 ± 0.12
- T22H — lower, -0.494 ± 0.16
- A15D — lower, -0.661 ± 0.45
- A15M — lower, -0.79 ± 0.16
- A15V — lower, -0.585 ± 0.093
- G48A — lower, -0.39 ± 0.084
- G48I — lower, -0.787 ± 0.22
- G48W — lower, -0.435 ± 0.091
- G48K — lower, -0.328 ± 0.11
- I32G — lower, -0.674 ± 0.09
- I32W — lower, -0.276 ± 0.07
- I32E — lower, -0.487 ± 0.078
- I32S — lower, -0.863 ± 0.12
- I32D — lower, -0.73 ± 0.15
- I32M — within error, -0.162 ± 0.055
- I32Q — lower, -0.307 ± 0.091
- V9P — lower, -0.781 ± 0.18
- V9K — lower, -0.598 ± 0.11
- V9G — lower, -0.602 ± 0.081
- V9R — lower, -0.788 ± 0.081
- V9M — lower, -1.01 ± 0.2
- G16A — higher, 0.024 ± 0.066
- G16T — within error, -0.012 ± 0.1
- G16I — within error, -0.118 ± 0.093
- G16S — higher, 0.019 ± 0.055
- E55A — within error, -0.042 ± 0.058
- E55T — higher, 0.026 ± 0.054
- E55K — within error, -0.02 ± 0.079
- E55L — higher, 0.059 ± 0.04
- A43P — lower, -0.865 ± 0.12
- A43N — lower, -0.763 ± 0.21
- A43D — lower, -0.793 ± 0.22
- A43G — lower, -0.299 ± 0.078
- A43L — lower, -0.853 ± 0.095
- A43Y — lower, -0.914 ± 0.21
- R1Y — within error, -0.105 ± 0.081
- R1V — lower, -0.519 ± 0.08
- R1M — lower, -0.548 ± 0.24
- R1H — within error, -0.2 ± 0.16
- R1Q — within error, -0.294 ± 0.22
- R1N — within error, 0.002 ± 0.099
- V41F — within error, -0.262 ± 0.085
- V41T — lower, -0.609 ± 0.15
- V41I — lower, -0.353 ± 0.097
- V41Y — within error, -0.154 ± 0.11
- V41L — within error, -0.199 ± 0.048
- V41S — lower, -0.73 ± 0.11
- V41N — lower, -1.01 ± 0.3
- V41E — lower, -1.12 ± 0.47
- W40G — lower, -0.547 ± 0.07
- W40D — within error, 0.028 ± 0.14
- W40H — within error, -0.01 ± 0.085
- W40A — lower, -0.3 ± 0.076
- W40I — the same, -0.139 ± 0.16
- W40Y — higher, 0.079 ± 0.098
- W40C — within error, -0.181 ± 0.061
- W40V — within error, -0.111 ± 0.067
- R17A — within error, -0.032 ± 0.068
- R17Q — within error, -0.117 ± 0.088
- R17E — within error, -0.02 ± 0.083
- R17F — within error, -0.214 ± 0.083
- R17T — within error, -0.164 ± 0.079
- R17V — within error, -0.253 ± 0.06
- R17M — within error, -0.091 ± 0.074
- R17G — within error, -0.09 ± 0.052
- D38N — within error, -0.017 ± 0.062
- D38I — within error, -0.066 ± 0.076
- D38L — higher, 0.016 ± 0.044
- D38Y — within error, -0.122 ± 0.056
- D38A — higher, 0.057 ± 0.045
- D38F — within error, -0.127 ± 0.077
- D38W — within error, -0.154 ± 0.071
- K42M — within error, -0.176 ± 0.057
- K42H — lower, -0.571 ± 0.14
- K42N — lower, -0.575 ± 0.23
- K42S — lower, -0.325 ± 0.058
- K42E — lower, -0.496 ± 0.14
- K42F — within error, -0.207 ± 0.079
- K42I — higher, 0.092 ± 0.085
- K42L — within error, -0.166 ± 0.044
- E33D — within error, -0.156 ± 0.16
- E33I — lower, -0.785 ± 0.21
- E33S — higher, 0.063 ± 0.048
- E33Q — higher, 0.051 ± 0.11
- E33F — lower, -0.725 ± 0.12
- E33H — within error, -0.193 ± 0.077
- E33G — higher, 0.071 ± 0.078
- E33Y — lower, -0.56 ± 0.12
- E49P — lower, -1.05 ± 0.19
- E49S — within error, -0.022 ± 0.052
- E49D — within error, -0.118 ± 0.11
- E49A — within error, -0.131 ± 0.093
- N59T — higher, 0.006 ± 0.058
- N59A — higher, 0.054 ± 0.06
- N59R — higher, 0.066 ± 0.043
- N59I — within error, -0.079 ± 0.075
- N59P — lower, -0.977 ± 0.16
- N59Q — higher, 0.018 ± 0.053
- N59M — within error, -0.117 ± 0.057
- N45S — lower, -0.571 ± 0.11
- N45P — within error, -0.301 ± 0.15
- N45I — within error, -0.212 ± 0.14
- N45Y — within error, -0.377 ± 0.18
- N45W — lower, -1.16 ± 0.22
- N45T — lower, -0.402 ± 0.11
- N45K — lower, -0.447 ± 0.1
- N45H — within error, -0.166 ± 0.17
- E20A — within error, -0.205 ± 0.064
- E20R — lower, -0.35 ± 0.053
- E20W — lower, -0.934 ± 0.14
- E20D — within error, -0.306 ± 0.11
- E20P — lower, -1.01 ± 0.17
- E20Y — lower, -0.548 ± 0.17
- P54H — within error, -0.017 ± 0.077
- P54I — lower, -0.426 ± 0.15
- P54A — within error, -0.2 ± 0.073
- P54S — within error, -0.126 ± 0.059
- P54Y — within error, -0.14 ± 0.087
- E34D — within error, -0.409 ± 0.23
- E34S — within error, -0.101 ± 0.053
- E34I — within error, -0.165 ± 0.11
- E34M — within error, -0.085 ± 0.063
- E34G — within error, -0.17 ± 0.064
- E34A — higher, 0.017 ± 0.061
- E34R — within error, -0.044 ± 0.049
